US20100254982A1 (VIVENTIA BIOTECHNOLOGIES, published 2010)

Tests used:
[1] = molecular target: Glucose transporter 8 (GLUT8), cancer-associated variant expressed on the surface of cancer cells (VB1-050 antigen) (human) (UniProt Q9NY64); experiment: flow cytometry saturation curve on antigen-positive cells
[2] = molecular target: Glucose transporter 8 (GLUT8), cancer-associated variant expressed on the surface of cancer cells (VB1-050 antigen) (human) (UniProt Q9NY64); experiment: cell-based or functional assay
[3] = molecular target: T1, Glucose transporter 8 (GLUT8), cancer-associated variant expressed on the surface of cancer cells (VB1-050 … (human, UniProt Q9NY64 1-477)); experiment: flow cytometry, normal lung cell line NHLF
T1 construct: whole, on cells; Endogenous antigen of human tumor cell lines, identified by immunoprecipitation with VB1-050 and mass spectrometry from HepG2 and MCF-7 membranes; Only L12A and L13A are printed with old and new residues; In the immunoprecipitations the membrane preparations were deglycosylated with N-Glycanase; also called VB1-050Ag; VB1-050 Ag
T1 sequence (looked up): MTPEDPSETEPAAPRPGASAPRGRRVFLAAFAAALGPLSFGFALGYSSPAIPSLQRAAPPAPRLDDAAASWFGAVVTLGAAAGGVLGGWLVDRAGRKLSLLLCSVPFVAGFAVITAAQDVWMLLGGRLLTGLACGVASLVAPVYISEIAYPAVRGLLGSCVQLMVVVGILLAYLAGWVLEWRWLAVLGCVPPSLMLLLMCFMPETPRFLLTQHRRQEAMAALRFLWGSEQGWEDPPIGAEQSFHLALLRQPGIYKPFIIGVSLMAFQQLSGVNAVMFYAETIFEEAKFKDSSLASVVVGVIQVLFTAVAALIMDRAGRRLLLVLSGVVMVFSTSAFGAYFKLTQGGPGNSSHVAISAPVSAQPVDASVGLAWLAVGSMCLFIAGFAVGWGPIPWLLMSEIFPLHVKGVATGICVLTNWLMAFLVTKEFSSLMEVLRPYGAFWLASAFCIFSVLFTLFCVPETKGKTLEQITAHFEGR

[4] = molecular target: T1, Glucose transporter 8 (GLUT8), …; experiment: flow cytometry, colon tumor cell lines HT-29, SW480, WiDr (mean of 3)
[5] = molecular target: T1, Glucose transporter 8 (GLUT8), …; experiment: flow cytometry competition on antigen-positive cells; competitor VB6-050 fixed at 250 µg/mL, detected with anti-bouganin antibody
[6] = molecular target: T1, Glucose transporter 8 (GLUT8), …; experiment: flow cytometry, normal endothelial cell line HUVEC
[7] = molecular target: T1, Glucose transporter 8 (GLUT8), …; experiment: flow cytometry, normal kidney cell line HRE
[8] = molecular target: T1, Glucose transporter 8 (GLUT8), …; experiment: flow cytometry, normal prostate cell line PrEC
[9] = molecular target: T1, Glucose transporter 8 (GLUT8), …; experiment: flow cytometry, prostate tumor cell lines DU-145, PC-3, LNCaP (mean of 3)
[10] = molecular target: T1, Glucose transporter 8 (GLUT8), …; experiment: flow cytometry titration on A-375 cells, Lineweaver-Burk method
[11] = molecular target: T1, Glucose transporter 8 (GLUT8), …; experiment: flow cytometry on A-375 cells, cells kept on ice for 120 minutes; above negative control human IgG (4B5)
[12] = molecular target: T1, Glucose transporter 8 (GLUT8), …; experiment: flow cytometry, normal breast cell line HMEC
[13] = molecular target: T1, Glucose transporter 8 (GLUT8), …; experiment: flow cytometry, rectum tumor cell lines Sw837, NCI-H630 (mean of 2)
[14] = molecular target: T1, Glucose transporter 8 (GLUT8), …; experiment: flow cytometry, cervix tumor cell lines HeLa, C-41, C-33A (mean of 3)
[15] = molecular target: T1, Glucose transporter 8 (GLUT8), …; experiment: flow cytometry, kidney tumor cell lines Caki-1, A498, ACHN (mean of 3)
[16] = molecular target: T1, Glucose transporter 8 (GLUT8), …; experiment: flow cytometry, breast tumor cell lines MCF-7, MDA-MB-231, MDA-MB-435S (mean of 3)
[17] = molecular target: T1, Glucose transporter 8 (GLUT8), …; experiment: flow cytometry, head & neck tumor cell lines SCC-15, SCC-25 (mean of 2)
[18] = molecular target: T1, Glucose transporter 8 (GLUT8), …; experiment: flow cytometry, ovarian tumor cell lines SK-OV-3, OVCar-3 (mean of 2)
[19] = molecular target: T1, Glucose transporter 8 (GLUT8), …; experiment: flow cytometry, pancreas tumor cell lines PANC-1, BxPC-3, MIA PaCa-2 (mean of 3)
[20] = molecular target: T1, Glucose transporter 8 (GLUT8), …; experiment: flow cytometry, lung tumor cell lines A-549, NCI-H460, NCI-H69 (mean of 3)
[21] = molecular target: T1, Glucose transporter 8 (GLUT8), …; experiment: flow cytometry, liver tumor cell lines SK-HEP-1, Hep-G2 (mean of 2)
[22] = molecular target: T1, Glucose transporter 8 (GLUT8), …; experiment: flow cytometry, melanoma cell lines A-375, SK-MEL-5, SK-MEL-28 (mean of 3)
[23] = molecular target: T1, Glucose transporter 8 (GLUT8), …; experiment: flow cytometry on A-375 cells, surface-bound antibody left after 120 min at 37 °C (internalization experiment)
[24] = molecular target: T1, Glucose transporter 8 (GLUT8), …; experiment: flow cytometry, endometrium tumor cell lines RL-95-2, HEC-1-A (mean of 2)
[25] = molecular target: T1, Glucose transporter 8 (GLUT8), …; experiment: flow cytometry on A-375 cells, surface-bound antibody left after 60 min at 37 °C (internalization experiment)
[26] = molecular target: T1, Glucose transporter 8 (GLUT8), …; experiment: flow cytometry, stomach tumor cell lines AGS, NCI-N-87, KATO III (mean of 3)
[27] = molecular target: T1, Glucose transporter 8 (GLUT8), …; experiment: flow cytometry, bladder tumor cell lines UM-UC-3, T24 (mean of 2)

B1: VB6-050 (soluble Fab-de-bouganin fusion protein derived from VB1-050) (Fab, V domains shown)
VH: EVQLLESGGDLVQPGGSLRLSCAASGFTFSNYAMSWVRQAPGKGLEWVSAITPSGGSTNYADSVKGRFTISRDNSQNTLYLQMNSLRVEDTAVYYCGRVPYRSTWYPLYWGQGTLVTVSS
VL: DIQMTQSPSSLSASVGDRVTITCRASQDISNYLAWFQRKPGKAPKSLIYAASSLHSKVPTQFSGSGSGTDFTLTISSLQPEDFATYYCLQYSTYPITFGGGTKVEIK
- saturation point [1]: 250 µg/mL
- IC50 (MTS cytotoxicity assay, 5 days, antigen-positive cells MB-435S) [2]: 400 nM

B2: VB1-050 monoclonal antibody (antibody, V domains shown)
VH: B1 VH
VL: DIQMTQSPSSLSASVGDRVTITCRASQDISNYLAWFQRKPGKAPKSLIYAASSLHSKVPTQFSGSGSGTDFTLTISSLQPEDFATYYCLQYSTYPITFGGGTKVEIKR
notes: also called VB1-050 IgG; parental IgG
- MF (mean fold increase in median fluorescence over control antibody) [3]: 8.7 fold
- MF (mean fold increase in median fluorescence over control antibody) [4]: 13.3 fold
- IC50 [5]: 180 µg/mL
- MF (mean fold increase in median fluorescence over control antibody) [6]: 5 fold
- MF (mean fold increase in median fluorescence over control antibody) [7]: 12.5 fold
- MF (mean fold increase in median fluorescence over control antibody) [8]: 2.1 fold
- MF (mean fold increase in median fluorescence over control antibody) [9]: 19.6 fold
- Kd [10]: 49 nM
- Fold-increase in MF [11]: 129 fold
- MF (mean fold increase in median fluorescence over control antibody) [12]: 3.1 fold
- MF (mean fold increase in median fluorescence over control antibody) [13]: 15.2 fold
- MF (mean fold increase in median fluorescence over control antibody) [14]: 11.8 fold
- MF (mean fold increase in median fluorescence over control antibody) [15]: 18.4 fold
- MF (mean fold increase in median fluorescence over control antibody) [16]: 29.9 fold
- MF (mean fold increase in median fluorescence over control antibody) [17]: 11.4 fold
- MF (mean fold increase in median fluorescence over control antibody) [18]: 21.7 fold
- MF (mean fold increase in median fluorescence over control antibody) [19]: 7.6 fold
- MF (mean fold increase in median fluorescence over control antibody) [20]: 14.8 fold
- MF (mean fold increase in median fluorescence over control antibody) [21]: 14.6 fold
- MF (mean fold increase in median fluorescence over control antibody) [22]: 22.7 fold
- Fold-increase in MF [23]: 39.3 fold
- MF (mean fold increase in median fluorescence over control antibody) [24]: 7 fold
- Fold-increase in MF [25]: 49.2 fold
- MF (mean fold increase in median fluorescence over control antibody) [26]: 9.6 fold
- MF (mean fold increase in median fluorescence over control antibody) [27]: 9.8 fold
